Assay results taken from article PMC5680255.

Tests used:
[1] = biological target: Photosystem II subunit S (PsbS) of Physcomitrella patens, recombinant, detergent-refolded (Physcomitrella patens); assay: DOSY NMR; PsbS in FC-12, pH 5.0; 1H HN intensities, double-exponential fit
[2] = biological target: Photosystem II subunit S (PsbS) of Physcomitrella patens, recombinant, detergent-refolded (Physcomitrella patens); assay: DOSY NMR; PsbS in FC-12, pH 7.5; 1H HN intensities, double-exponential fit
[3] = biological target: Photosystem II subunit S (PsbS) of Physcomitrella patens, recombinant, detergent-refolded (Physcomitrella patens); assay: SEC; Superdex 200 5/150 GL; 100 mM sodium phosphate pH 7.5 with 1% OG; detection at 260 nm
[4] = biological target: Photosystem II subunit S (PsbS) of Physcomitrella patens, recombinant, detergent-refolded (Physcomitrella patens); assay: SEC; Superdex 200 5/150 GL; 100 mM sodium phosphate pH 7.5 with 0.05% FC12; detection at 260 nm
[5] = biological target: Photosystem II subunit S (PsbS) of Physcomitrella patens, recombinant, detergent-refolded (Physcomitrella patens); assay: SDS-PAGE without boiling; PsbS refolded in FC-12, pH 5.0; samples taken day 0 to day 90 after refolding; not boiled before loading
[6] = biological target: Photosystem II subunit S (PsbS) of Physcomitrella patens, recombinant, detergent-refolded (Physcomitrella patens); assay: SDS-PAGE without boiling; PsbS refolded in FC-12, pH 7.5; samples taken day 0 to day 90 after refolding; not boiled before loading

Measured: stoichiometry N

Photosystem II subunit S (PsbS) of Physcomitrella patens, recombinant, detergent-refolded (natural protein)
2: all assays above
